# How the values were obtained:
# [1] = molecular target: translinB3 (untagged, co-expressed);TRAXB3 (human;human, UniProt Q15631;Q99598 1-228;1-290, R192T;K193N;R194S;Y195N|K241N;K242T;Y244N); assay: EMSA; 100 nM complex, 200 nM DNA; 25 mM Tris-HCl pH 8.0, 100 mM NaCl, 1 mM EDTA, 30 min; temperature not stated; 4.5% native PAGE in 0.5x TBE; settings: protein: recombinant;recombinant; tags: none;N-terminal 6xHis; label: 5'-32P (unlabeled in agarose EMSA)
# [2] = molecular target: translinB3 (untagged, co-expressed);TRAXB2 (human;human, UniProt Q15631;Q99598 1-228;1-290, R192T;K193N;R194S;Y195N|Q115L;H117N;R118A); assay: as above; settings: protein: recombinant;recombinant; tags: none;N-terminal 6xHis; label: 5'-32P (unlabeled in agarose EMSA)
# [3] = molecular target: translinB3 (untagged, co-expressed);TRAX (human;human, UniProt Q15631;Q99598 1-228;1-290, R192T;K193N;R194S;Y195N|); assay: as above; settings: protein: recombinant;recombinant; tags: none;N-terminal 6xHis; label: 5'-32P (unlabeled in agarose EMSA)
# [4] = molecular target: T1, translin (untagged, co-expressed);TRAX (human;human, UniProt Q15631;Q99598 1-228;1-290, |); assay: UV-laser crosslinking (248 nm); DNA covalently linked to TRAX subunit; 25 mM Tris-HCl pH 8.0, 100 mM NaCl, 1 mM EDTA, 30 min; temperature not stated; 4.5% native PAGE in 0.5x TBE; settings: protein: recombinant;recombinant; tags: none;N-terminal 6xHis; label: 5'-32P (unlabeled in agarose EMSA)
# [5] = molecular target: translinB3 (human, UniProt Q15631 1-228, R192T;K193N;R194S;Y195N); assay: EMSA; 100 nM octamer, 200 nM labeled DNA; 25 mM Tris-HCl pH 8.0, 100 mM NaCl, 1 mM EDTA, 30 min; temperature not stated; 4.5% native PAGE in 0.5x TBE; settings: protein: recombinant; tags: N-terminal 6xHis; chain copies: 8; label: 5'-32P (unlabeled in agarose EMSA)
# [6] = molecular target: T1, translin (untagged, co-expressed);TRAX; assay: EMSA; 100 nM complex, 100 nM DNA; 25 mM Tris-HCl pH 8.0, 100 mM NaCl, 1 mM EDTA, 30 min; temperature not stated; 4.5% native PAGE in 0.5x TBE; settings: protein: recombinant;recombinant; tags: none;N-terminal 6xHis; label: 5'-32P (unlabeled in agarose EMSA)
# [7] = molecular target: translinB2 (untagged, co-expressed);TRAXB2 (human;human, UniProt Q15631;Q99598 1-228;1-290, R86T;H88N;H90N|Q115L;H117N;R118A); assay: as above; settings: protein: recombinant;recombinant; tags: none;N-terminal 6xHis; label: 5'-32P (unlabeled in agarose EMSA)
# [8] = molecular target: translin (untagged, co-expressed);TRAXB2 (human;human, UniProt Q15631;Q99598 1-228;1-290, |Q115L;H117N;R118A); assay: as above; settings: protein: recombinant;recombinant; tags: none;N-terminal 6xHis; label: 5'-32P (unlabeled in agarose EMSA)
# [9] = molecular target: translinB2 (untagged, co-expressed);TRAX (human;human, UniProt Q15631;Q99598 1-228;1-290, R86T;H88N;H90N|); assay: as above; settings: protein: recombinant;recombinant; tags: none;N-terminal 6xHis; label: 5'-32P (unlabeled in agarose EMSA)
# [10] = molecular target: T1, translin (untagged, co-expressed);TRAX; assay: UV-laser crosslinking (248 nm); DNA covalently linked to TRAX subunit; silver stain; 25 mM Tris-HCl pH 8.0, 100 mM NaCl, 1 mM EDTA, 30 min; temperature not stated; 4.5% native PAGE in 0.5x TBE; settings: protein: recombinant;recombinant; tags: none;N-terminal 6xHis
# T1 sequence (Q15631 whole entry, chain 1 of 2): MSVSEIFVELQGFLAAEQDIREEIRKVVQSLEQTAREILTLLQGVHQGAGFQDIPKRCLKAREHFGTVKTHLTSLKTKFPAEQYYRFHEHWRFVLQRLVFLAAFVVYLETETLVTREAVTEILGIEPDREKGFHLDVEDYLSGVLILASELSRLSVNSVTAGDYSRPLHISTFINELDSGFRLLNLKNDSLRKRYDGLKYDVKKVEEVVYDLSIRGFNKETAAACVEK
# T1 sequence (Q99598 whole entry, chain 2 of 2): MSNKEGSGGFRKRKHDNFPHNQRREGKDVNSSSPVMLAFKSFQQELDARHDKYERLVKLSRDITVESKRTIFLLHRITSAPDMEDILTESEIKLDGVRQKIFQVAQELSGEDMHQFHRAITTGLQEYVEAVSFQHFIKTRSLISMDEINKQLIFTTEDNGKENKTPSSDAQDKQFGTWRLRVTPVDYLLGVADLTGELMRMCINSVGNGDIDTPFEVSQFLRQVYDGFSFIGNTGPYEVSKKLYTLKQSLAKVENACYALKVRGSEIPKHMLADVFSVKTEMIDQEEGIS
# translinB3 (untagged, co-expressed);TRAX, sequence (Q15631 whole entry R192T/K193N/R194S/Y195N, chain 1 of 2): as the sequence (Q15631 whole entry, chain 1 of 2) above, with R192T, K193N, R194S, Y195N counted along it
# translinB3 (untagged, co-expressed);TRAX, sequence (Q99598 whole entry, chain 2 of 2): as the sequence (Q99598 whole entry, chain 2 of 2) above
# translinB3 (untagged, co-expressed);TRAXB2, sequence (Q15631 whole entry R192T/K193N/R194S/Y195N, chain 1 of 2): as the sequence (Q15631 whole entry, chain 1 of 2) above, with R192T, K193N, R194S, Y195N counted along it
# translinB3 (untagged, co-expressed);TRAXB2, sequence (Q99598 whole entry Q115L/H117N/R118A, chain 2 of 2): as the sequence (Q99598 whole entry, chain 2 of 2) above, with Q115L, H117N, R118A counted along it
# translinB3 (untagged, co-expressed);TRAXB3, sequence (Q15631 whole entry R192T/K193N/R194S/Y195N, chain 1 of 2): as the sequence (Q15631 whole entry, chain 1 of 2) above, with R192T, K193N, R194S, Y195N counted along it
# translinB3 (untagged, co-expressed);TRAXB3, sequence (Q99598 whole entry K241N/K242T/Y244N, chain 2 of 2): as the sequence (Q99598 whole entry, chain 2 of 2) above, with K241N, K242T, Y244N counted along it
# translinB3, sequence (Q15631 whole entry R192T/K193N/R194S/Y195N): as the sequence (Q15631 whole entry, chain 1 of 2) above, with R192T, K193N, R194S, Y195N counted along it
# translin (untagged, co-expressed);TRAXB2, sequence (Q15631 whole entry, chain 1 of 2): as the sequence (Q15631 whole entry, chain 1 of 2) above
# translin (untagged, co-expressed);TRAXB2, sequence (Q99598 whole entry Q115L/H117N/R118A, chain 2 of 2): as the sequence (Q99598 whole entry, chain 2 of 2) above, with Q115L, H117N, R118A counted along it
# translinB2 (untagged, co-expressed);TRAX, sequence (Q15631 whole entry R86T/H88N/H90N, chain 1 of 2): as the sequence (Q15631 whole entry, chain 1 of 2) above, with R86T, H88N, H90N counted along it
# translinB2 (untagged, co-expressed);TRAX, sequence (Q99598 whole entry, chain 2 of 2): as the sequence (Q99598 whole entry, chain 2 of 2) above
# translinB2 (untagged, co-expressed);TRAXB2, sequence (Q15631 whole entry R86T/H88N/H90N, chain 1 of 2): as the sequence (Q15631 whole entry, chain 1 of 2) above, with R86T, H88N, H90N counted along it
# translinB2 (untagged, co-expressed);TRAXB2, sequence (Q99598 whole entry Q115L/H117N/R118A, chain 2 of 2): as the sequence (Q99598 whole entry, chain 2 of 2) above, with Q115L, H117N, R118A counted along it
Binder,binding result [1],binding result [2],binding result [3],binding result [4],binding result [5],binding result [6],binding result [7],binding result [8],binding result [9],binding result [10]
GCCCTCCTGCCCTCCTTCCGCGGG (ssDNA) [Bcl-CL1 24-mer],no binding,no binding,no binding,binds,no binding,binds,binds,binds,binds,–
CCTGTAGTAATGGCTGCATTGAACAGATGCATATCTTCCCCTG (ssDNA) [43-mer (trxB2 reverse primer)],–,–,–,–,–,–,–,–,–,binds
